Source: a protein production outcome set (Wang et al. 2014)

Assay: label from the status in PepcDB records

Sequence	protein production
MANSASPEQNQNHCSAINNSIPLMQGNLPTLTLSGKIRVTVTFFLFLLSATFNASFLLKLQKWTQKKEKGKKLSRMKLLLKHLTLANLLETLIVMPLDGMWNITVQWYAGELLCKVLSYLKLFSMYAPAFMMVVISLDRSLAITRPLALKSNSKVGQSMVGLAWILSSVFAGPQLYIFRMIHLADSSGQTKVFSQCVTHCSFSQWWHQAFYNFFTFSCLFIIPLFIMLICNAKIIFTLTRVLHQDPHELQLNQSKNNIPRARLKTLKMTVAFATSFTVCWTPYYVLGIWYWFDPEMLNRLSDPVNHFFFLFAFLNPCFDPLIYGYFSL	not failed
MRYRNSRQVTGVVKNVTVSQSCGKWYISIQAESEVSTPVHPSASMVGLDAGVAKLASLSDGTVFEPVNSFQKNQKTLARLQRQLSRKVKFSNNWQKQKRKIQRLHSCIANIRRDYLHKVTTTVSKNHVMIVIEDLKVSNMSKSAAGTVSQPGRNVRAKSGLNRSILDQGWYEMRRQLEYKQLWRGGQVLAVPPAYTSQRCACCGHTAKENRLSQSKFRCQVCGYTANADVNGARNILAAGHAVLACGEMVQSGRSLKQEPTEMIQATALEHHHHHH	failed
MSTSDSCYNTGYILRICAIAALGGILFGYDTAVISGAIGSLTSYFHLSPAETGWAVSCVVVGCVIGSFSAGYLSKRFGRKKSLMVSALLFTISAVGTSLSYTFTHFVIYRIIGGLAVGLAATVSPMYMSEVSPKNMRGRALSMQQFAIVFGQILIFYVNYKIASIAADTWLIELGWRYMFAAGIIPCILFCILVFLIPESPRWMMMIGREEETLKILTKISNEEHARHLLADIKTSLQNDQLNAHQKLNYRDGNVRFILILGCMIAMLQQVTGVNVMMYYAPIVLKDVTGSAQEALFQTIWIGVIQLIGSIIGAMIMDKMGRLSLMRKGTIGSIIGLLLTSWALYSQATGYFALFGMLFFMIFYALSWGVGAWVLISEIFPNRMRSQGMSISVGFMWMANFLVSQFFPMINENPYLLSHFHGAFPMWIFAICCIFSYFFICRYLPETKGISLEKMESVVLAKRRKKLQPIQTERYSD	failed
MTNLGTAKNFWDATLYQDKHSFVWQYGEDLLQLLNPQPGEFILDLGCGTGQLTEKIAQSGAEVLGTDNAATMIEKARQNYPHLHFDVADARNFRVDKPLDAVFSNAMLHWVKEPEAAIASIHQALKSGGRFVAEFGGKGNIKYILEALYNALETLGIHNPQALNPWYFPSIGEYVNILEKQGFDVTYAALFNRPTTLAEGEFGMANWIQMFASAFLVGLTPDQQVQLIRKVEATLQDKLYHQESWTADYRRIRIVSIKAQ	not failed
MMLRRLALSAATGLMLALPALAETVSDFRLPNGLEVVVIEDHRAPVVTHMVWYRVGAADEPPGHSGIAHFLEHLMFKGTDEMSAGEFSATVEAQGGDDNAFTSWDYTAYFQRVAADRLDLMMKMEADRMRDLQMTEEDVRTERQVVLEERSQRTDSDPGAVFSEQSRAAAYLNHPYGIPIIGWRHEIEQLGREDAFSFYRTYYAPNNAILVVAGDVDPAEVRRMAEEHYGALEPTPNLPERLRPQEPPQLAERRLTFSDPRVAQPYVSRSYLAATRETGAQEKAAALTILAELLGGSPTTSLLSRELQFGPEPKAVWAQAYYDGGGLDSGTFGLAVVPAAGVSLQEAEDAMDAVVARFLKEGPDAEDFERIKTQLGAQDIYSRDNVDGLARRYGAALTTGLTVADVQAWPEVLQAVTPDEVMAAAREVFDRRRAVTGWLMQEDEEKSQ	failed
MDELLEKAKKVREAWDVLRNATTREKNKAIKKIAEKLDERRKEILEANRIDVEKARERGVKESLVDRLALNDKRIDEMIKACETVIGLKDPVGEVIDSWVREDGLRIARVRVPIGPIGIIYESRPNVTVETTILALKSGNTILLRGGSDALNSNKAIVSAIREALKETEIPESSVEFIENTDRSLVLEMIRLREYLSLVIPRGGYGLISFVRDNATVPVLETGVGNCHIFVDESADLKKAVPVIINAKTQRPGTCNAAEKLLVHEKIAKEFLPVIVEELRKHGVEVRGCEKTREIVPDVVPATEDDWPTEYLDLIIAIKVVKNVDEAIEHIKKYSTGHSESILTENYSNAKKFVSEIDAAAVYVNASTRFTDGGQFGFGAEIGISTQRFHARGPVGLRELTTYKFVVLGEYHVRE	not failed
MKVAVLVGGVGRRIGMEKTEVMLCGKKLIEWVLEKYSPFQTVFVCRDEKQAEKLSSRYEAEFIWDLHKGVGSIAGIHAALRHFGSCVVAAIDMPFVKPEVLEHLYKEGEKAGCDALIPKHDYPEPLLAYYAESAADELERAILQGIRKILVPLERLNVVYYPVEKLRKFDKELISFFNINTPDDLKRAEEICSKMSTEGLLEHHHHHH	not failed
MTQLELLLERIIDRVNVNLRHQKFDVGDYVRRQTPHLHYSKFYAFYGLSADDPVHFHFKNSSLAGSYLLGRVNVLHSALYKSDIRGDELKRKGQHFVCDGKMIPLHDDEVITIKDSFLNKTLVHSNSHDPESPEEFTIRNTVAMPYANIHGSLTEGSFIGSFATVDLSTIHNSVVRYFSYVQTGELVGKCVEPGQIWIKSGDELEFHYSFDKAILDKYISQEAGSCPTGVLMEFVEVRQEDFEEVFASGHMASGAGSASGASVSGYAVIKGDTVIGENVLVSQRAYLDNAWMGKGSNAQENCYIINSRLERNCVTAHGGKIINAHLGDMIFTGFNSFLQGSESSPLKIGDGCVVMPHTIIDLEEPLEIPAGHLVWGYIRNKADLAAHSISFEEFAKVDGEVTMGRMTFRGKGGPFLDSFKKRIKRILSENGAFFDGSEGTGHAQKGKNFTFNIIQPYQDGDPRGMYPTILIQPNNGS	not failed
FATTDDVILLWRQLSVDEIKRAEALLETVSDTLRLEASKVGKNLDEMILETPYFATVLKSVTVDIVARTLMTATQGEPMSQESQSALGYTWSGTYLVPGGGLFIKDSELKRLGLKKQRYGGI	failed
MADHSIQGKVALIAGGAKNLGGLIARDLAAHGARAIAIHYNSPASKADADATVAALQAAGAQAVALQGDLTTAAAVEKLYADALAAVGRPDIAINTVGKVLKKPFSEISEAEYDEMAAVNAKSAFFFLKEAGRHVNDHGKIVTLVTSLLGAFTPFYSAYAGTKAPVEHYTRAAAKEFGARGISVTAVGPGPMDTPFFYGQESPEAVAYHQSAAALSPHSPTGLTHIEDVVPFIRHLVSDGWWITGQTLLINGGYTTK	not failed
MIFYFSGTGNSKWIAEQIAKAQNEVLVFMPNAIRDGIEEFVLADDEKVGFVFPVYSWGPPLSVLRFLDWITLSNYHSQYVFFVCSCGDDTGLTEELFRRALSRKGMECNAGFSVAMPNNYVLLPGFDVDKKELEKKKLDEAVGRVEEINDSITGKKIGFHCNEGSFPWFKTKVLNPLFNRFMTSAKPFYATDDCIGCKRCERICPVGNVVMIGWRPVWGMDCTSCLACYHVCPKHAVQYGRRTKRKGQYLNPNVSISHEAAAQLEHHHHHH	not failed
MEKLSAREKPDINVAEAWEQYWNKTLVNATPVLWDANVERAVVVDLPRFQSFFDTELPLIDFACGNGTQTKFLSQFFPRVIGFDVSKTALEMASKENTAANISYRLLDGLVPEQAAQIHSEIGDANIYMRTGFHHIPVEKRELLAQSLRTLLGKQGVMYLIELGTGCIEFFNSLLEKYGKLPYELSLVMEHGIRPGIFTTEDIELYFPDFEILSQGESLFQSIHKLPDGNYATPPAFWAVIKRH	failed
MNIAISGASGFIGKHLTEYLTEAGHRVVPLGRPMFREGTSGHLIQALSHCDVIINLAGAPIGKRWTPEYKKELYDSRIKVTHCIIRAMDAVKTKPRLMISASAVGYYPEEGTFDEYTNTRGSGFLAELCYAWEKEARRCPSQTRLVITRFGIVLSPDGGAMEQMLRPLRITRVAGVIGPGTQPFPWIAIQDLCRAMEFIIRHEEASGVFNLVAPQQVSQYAFTQAMAARYHAWMKVVVPRWFFRMRYGEAASFLASGQNVRPTRLLEAGFRFAKPTIEDFFEGTDHAVVDRLDLHRYMGTWYEIARFDHRFERGLSEVTATYTLMPDGTVRVENRGCKHKKPYDVCKTAEGRAKIPDPSQPGKLKVSFFLSFYSDYYVLELDQDEYNYALIGSSSDKYLWILSRAPILPEEIKKKLLDAATRRGYDVKKLIWVEQREKKIM	failed
AKLMNRFSTTKLNPLIGSAGVSAVPMAARVSNKVGLEANAQNFLLMHAMGPNVAGVIGSAVAAGVMIKYVMG	failed
MVLEVSDHQVLNDAEVAALLENFSSSYDYGENESDSCCTSPPCPQDFSLNFDRAFLPALYSLLFLLGLLGNGAVAAVLLSRRTALSSTDTFLLHLAVADTLLVLTLPLWAVDAAVQWVFGSGLCKVAGALFNINFYAGALLLACISFDRYLNIVHATQLYRRGPPARVTLTCLAVWGLCLLFALPDFIFLSAHHDERLNATHCQYNFPQVGRTALRVLQLVAGFLLPLLVMAYCYAHILAVLLVSRGQRRLRAMRLVVVVVVAFALCWTPYHLVVLVDILMDLGALARNCGRESRVDVAKSVTSGLGYMHCCLNPLLYAFVGVKFRERMWMLLLRLGCPNQRGLQRQPSSSRRDSSWSETSEASYSGL	not failed
MALMQELYSTPASRLDSFVAQWLQPHREWKEEVLDAVRTVEEFLRQEHFQGKRGLDQDVRVLKVVKVGSFGNGTVLRSTREVELVAFLSCFHSFQEAAKHHKDVLRLIWKTMWQSQDLLDLGLEDLRMEQRVPDALVFTIQTRGTAEPITVTIVPAYRALGPSLPNSQPPPEVYVSLIKACGGPGNFCPSFSELQRNFVKHRPTKLKSLLRLVKHWYQQYVKARSPRANLPPLYALELLTIYAWEMGTEEDENFMLDEGFTTVMDLLLEYEVICIYWTKYYTLHNAIIEDCVRKQLKKERPIILDPADPTLNVAEGYRWDIVAQRASQCLKQDCCYDNRENPISSWNVKRARDIHLTVEQRGYPDFNLIVNPYEPIRKVKEKIRRTRGYSGLQRLSFQVPGSERQLLSSRCSLAKYGIFSHTHIYLLETIPSEIQVFVKNPDGGSYAYAINPNSFILGLKQQIEDQQGLPKKQQQLEFQGQVLQDWLGLGIYGIQDSDTLILSKKKGEALFPAS	failed
MSLRNPVLAGLSVEEIREAVSGEYLIEPREEKMVEQVVIGAMSPQSALRYLREARNAALVTGGDRSDLLLTALEMPNVRCLILTGNLEPVQLVLTKAEERGVPVILTGHDTLTAVSRLESVFGRTRIRGEPKVGIMRELFESEGHHHHHH	not failed
ALQAGRLGSTVFVANLDYKVGWKKLKEVFSMAGVVVRADILEDKDGKSRGIGTVTFEQSIEAVQAISMFNGQLLFDRPMHVKMDERALPKGDFFPPERPQQ	not failed
MSLTNHEQVLTDYLAAFIEELVRAGVKEAIISPGSRSTPLALMMAEHPILKIYVDVDERSAGFFALGLAKASKRPVVLLCTSGTAAANYFPAVAEANLSQIPLIVLTADRPHELRNVGAPQAMDQLHLYGSHVKDFTDMALPENSEEMLRYAKWHGSRAVDIAMKTPRGPVHLNFPLREPLVPILEPSPFTATGKKHHHVHIYYTHEVLDDSSIQKMVTECTGKKGVFVVGPIDKKELEQPMVDLAKKLGWPILADPLSGLRSYGALDEVVIDQYDAFLKEAEIMDKLTPEVVIRFGSMPVSKPLKNWLEQLSDIRFYVVDPGAAWKDPIKAVTDMIHCDERFLLDIMQQNMPDDAKDAAWLNGWTSYNKVAREIVLAEMANTTILEEGKIVAELRRLLPDKAGLFIGNSMPIRDVDTYFSQIDKKIKMLANRGANGIDGVVSSALGASVVFQPMFLLIGDLSFYHDMNGLLMAKKYKMNLTIVIVNNDGGGIFSFLPQANEPKYFESLFGTSTELDFRFAAAFYDADYHEAKSVDELEEAIDKASYHKGLDIIEVKTNRHENKANHQALEGHHHHHH	not failed
